Assay results: US10206896B2, “Method of treating delayed healing of a wound associated with diabetes” (KUWAIT UNIVERSITY, priority 2014, dated 2019)

Legend:
[1] = system: control fibroblasts (CFs); test: In vitro scratch wound (cell migration) in control fibroblasts; assay type: cell-based, Wistar rat; details: 24 hrs post-injury
Experimental: (§1) Cell culture and HP treatment. […] Assessment of key fibroblast functions essential for wound healing. To assess cell proliferation, fibroblasts were seeded into a 96-well plate at a density of 1×10^4 per well and were allowed to adhere overnight in DMEM medium supplemented with 10% FCS. After arrest by incubation in serum-free medium for 24 hours, the cells were exposed to growth factors, and the incorporation of bromodeoxyuridine (BrdU) into DNA was determined using the manufacturer's protocol (Roche Diagnostics). Similarly, for the in vitro wound (migration) experiments, cultured fibroblasts were grown in six-well plates until they reached confluence. The medium was removed, the cells were washed with PBS 3× before culturing was continued in serum-free DMEM containing 0.5% BSA for an additional 24 hours. […] The rate of wound healing was quantified as described in the literature […] Caveolin-1 protein expression and PDGF-induced phosphorylation of Akt (20 min) and ERK (10 min) in 24-hr serum starved fibroblasts were determined using a Western-blotting-based technique. A proliferation index encompassing BrdU incorporation into DNA and cell cycle progression was evaluated in response to various growth factors (e.g., IGF, 50 ng; PDGF, 1 nM; EGF, 100 ng) in 24-hr serum starved fibroblast. […]

[2] = system: control fibroblasts (CFs); test: BrdU incorporation into DNA (cell proliferation) in control fibroblasts; assay type: cell-based, Wistar rat; details: 24-hr serum starved CFs, vs starved cells; dose providing the maximum response (IGF 50 ng, PDGF 1 nM, EGF 100 ng)
Experimental: as §1

B1: EGF: mitotic growth factor (protein, UniProt P01133 23-1207, looked up)
Pro-epidermal growth factor: PQHWSCPEGTLAGNGNSTCVGPAPFLIFSHGNSIFRIDTEGTNYEQLVVDAGVSVIMDFHYNEKRIYWVDLERQLLQRVFLNGSRQERVCNIEKNVSGMAINWINEEVIWSNQQEGIITVTDMKGNNSHILLSALKYPANVAVDPVERFIFWSSEVAGSLYRADLDGVGVKALLETSEKITAVSLDVLDKRLFWIQYNREGSNSLICSCDYDGGSVHISKHPTQHNLFAMSLFGDRIFYSTWKMKTIWIANKHTGKDMVRINLHSSFVPLGELKVVHPLAQPKAEDDTWEPEQKLCKLRKGNCSSTVCGQDLQSHLCMCAEGYALSRDRKYCEDVNECAFWNHGCTLGCKNTPGSYYCTCPVGFVLLPDGKRCHQLVSCPRNVSECSHDCVLTSEGPLCFCPEGSVLERDGKTCSGCSSPDNGGCSQLCVPLSPVSWECDCFPGYDLQLDEKSCAASGPQPFLLFANSQDIRHMHFDGTDYGTLLSQQMGMVYALDHDPVENKIYFAHTALKWIERANMDGSQRERLIEEGVDVPEGLAVDWIGRRFYWTDRGKSLIGRSDLNGKRSKIITKENISQPRGIAVHPMAKRLFWTDTGINPRIESSSLQGLGRLVIASSDLIWPSGITIDFLTDKLYWCDAKQSVIEMANLDGSKRRRLTQNDVGHPFAVAVFEDYVWFSDWAMPSVMRVNKRTGKDRVRLQGSMLKPSSLVVVHPLAKPGADPCLYQNGGCEHICKKRLGTAWCSCREGFMKASDGKTCLALDGHQLLAGGEVDLKNQVTPLDILSKTRVSEDNITESQHMLVAEIMVSDQDDCAPVGCSMYARCISEGEDATCQCLKGFAGDGKLCSDIDECEMGVPVCPPASSKCINTEGGYVCRCSEGYQGDGIHCLDIDECQLGEHSCGENASCTNTEGGYTCMCAGRLSEPGLICPDSTPPPHLREDDHHYSVRNSDSECPLSHDGYCLHDGVCMYIEALDKYACNCVVGYIGERCQYRDLKWWELRHAGHGQQQKVIVVAVCVVVLVMLLLLSLWGAHYYRTQKLLSKNPKNPYEESSRDVRSRRPADTEDGMSSCPQPWFVVIKEHQDLKNGGQPVAGEDGQAADGSMQPTSWRQEPQLCGMGTEQGCWIPVSSDKGSCPQVMERSFHMPSYGTQTLEGGVEKPHSLLSANPLWQQRALDPPHQMELTQ
modifications: Pro-epidermal growth factor
number of cells that migrated into the cell-free wound zone [1]: markedly increased | increase of proliferation rate (BrdU incorporation) [2]: ~7.1 fold
